This note sets out measurements from EP1327681A1.

Test [1] deals with human TPO receptor (MPL) expressed on Ba/F3 cells (human) (UniProt P40238). The test can be described thus: cell-based or functional assay.
Test [2] shares this target. The test can be described thus: cell-based or functional assay. The source holds these as a separate data set.

Turning to “human TPO (R&D Systems) (from UniProt P40225 22-353) (ligand)”, the ED50, proliferation of BaF/mpl cells (WST-8) in test [1] turned out to be 0.027 nM.

B1: antibody 12B5 (IgG) (antibody, from another filing)
scFv: QVQLVQSGGGLVRPGGSLSLSCAVSGITLRTYGMHWVRQAPGKGLEWVAGISFDGRSEYYADSVQGRFTISRDSSKNTLYLQMNSLRAEDTAVYYCARGAHYGFDIWGQGTMVTVSSGGGGTGGGGSGGGGSDIQMTQSPSTLSASIGDRVTITCRASEGIYHWLAWYQQKPGKAPKLLIYKASSLASGAPSRFSGSGSGTDFTLTISSLQPDDFATYYCQQYSNYPLTFGGGTKLEIK
In test [2], B1 displayed an ED50, TPO-like agonist activity, proliferation of BaF/mpl cells (WST-8) of 29 nM.
